Source: publication PMC6381839

Molecular target: GoxA (glycine oxidase) from Pseudoalteromonas luteoviolacea, glycine-soaked (Gly-GoxA) (Pseudoalteromonas luteoviolacea)
Experiment: crystal structure

- stoichiometry N: 4
Substance: GoxA (glycine oxidase) from Pseudoalteromonas luteoviolacea, glycine-soaked (Gly-GoxA) (enzyme)
